Test results reported in paper PMC9372883 (Antibody Therapeutics, 2022).

B1: CCL19-H6-Flag (ligand)
chain: GTNDAEDCCLSVTQKPIPGYIVRNFHYLLIKDGCRVPAVVFTTLRGRQLCAPPDQPWVERIIQRLQRTSAKMKRRSS
B2: CCL21-H6-Flag (ligand)
chain: SDGGAQDCCLKYSQRKIPAKVVRSYRKQEPSLGCSIPAILFLPRKRSQAELCADPKELWVQQLMQHLDKTPSPQKPAQGCRKDRGASKTGKKGKGSKGCKRTERSQTPKGP

Target: T1, P9-CCR7 (human, UniProt P32248 25-378)
T1 sequence: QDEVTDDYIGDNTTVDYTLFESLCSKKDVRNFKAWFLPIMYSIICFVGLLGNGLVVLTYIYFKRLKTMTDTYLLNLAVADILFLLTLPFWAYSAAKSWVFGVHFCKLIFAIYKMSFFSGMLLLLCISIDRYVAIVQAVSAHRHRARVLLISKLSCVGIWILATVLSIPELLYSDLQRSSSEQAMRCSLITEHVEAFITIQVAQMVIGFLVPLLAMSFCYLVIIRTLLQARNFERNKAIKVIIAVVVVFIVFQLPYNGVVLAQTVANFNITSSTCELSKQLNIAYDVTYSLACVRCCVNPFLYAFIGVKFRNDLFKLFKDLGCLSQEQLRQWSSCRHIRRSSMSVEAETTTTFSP
Experiment: ELISA

Binder | Kd [nM]
B1 | 19
B2 | 11
